Assay: yeast display, Sf9 membrane polyspecificity reagent, FACS + sequencing; frameworks hold sequencing errors
Procedure, shortened: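 Nanobodies came from a synthetic yeast display library in Saccharomyces cerevisiae BJ5465, induced with galactose for 36–48 hours and stained for 1 hour at 4 °C with 10% biotinylated, detergent-solubilized Sf9 membrane reagent. Cells were enriched on streptavidin microbeads and then FACS-sorted, with low and high (top ~1%) gates set on anti-HA fluorescence for expression and streptavidin fluorescence for reagent binding. Each polyreactivity label reflects the gate a clone came from. Genes were amplified by colony PCR, sequenced by MiSeq 2 × 250 and filtered by CDR length.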

Sequence	polyreactivity (PSR sort gate)
QVQLVESGGGLVQAGGSLRLSCPASGIIFDRNAMGWYRQAPVKERELVAAITGSGGSTYYADSVKGRFTISRDNAKNTVYLQMNSLKPEDTAVYYCAATYLSRWTLYDYWGQGTQVTVSS	high polyreactivity
QVQLVESGGGLVQAGGSLRLSCPASGINFIFYAMAWYREAPGKERELVATIRRSGSTYYADSVKGRFTISRDNAKNTVYLQMNSLKPEDTAVYYCNARYPYSYGDYWGQGTQVTVSS	high polyreactivity
QVQLVESGGGLVQAGGSLRLSCPASGITFGTNAMGWYIQAPGKERELVAAISKRGSSTYYADSVKGRFTISRDNAKNTVYLQMNSLKPEDTAVYYCNVVDERTRNLSKFYYWGQGTQVTVSS	high polyreactivity
QVQLVESGGGLVQAGGSLRLSCPASGLTFAYYTMGWYRQSPGKERELVADISRSGGSTYYADSVKGRFTISRDNAKNTVYLQMNSLKPEDSAVYYCAARANVYTKKRDYWGQGTQVTVSW	high polyreactivity
QVQLVESGGGLVQAGGSLRLSCPASGRIFDYYAMGRYRQAPGKERELVARITSGGTTNYADSVKGRFTISRDNAKNTVFLQMNSLKPEDTAVYYCNAQDYCDPLQMDYWGQGTQVTVSS	low polyreactivity
QVQLVESGGGLVQAGGSLRLSCPASGRIFKWYAMGWYRPAPGKERELVAAISWSGGRTYYADSVKGRFTISRDNAKNTVYLQMHSVKPEDTAVYYCAAAIRYRNYVYLYDYWGQGTQVTVSS	high polyreactivity
QVQLVESGGGLVQAGGSLRLSCPASGRTFRYYAMGWYRQAPGKERELVAAITANGGSTFYADSVKGRFTISRDNAKNTVYLQMNSLKPEDTAVYYCAARFYTSSRYNYWGQGTQVTVSS	high polyreactivity
QVQLVESGGGLVQAGGSLRLSCPASGRTFYRNAMGWYRQAPGKEREFVAVITWSTGTTYYADSVKGRFTISRDNAKNTVYLQMNSPKPEDTAVYYCAADSQPPHELYESIEHESWGQGTQVTVSS	low polyreactivity
QVQLVESGGGLVQAGGSLRLSCPASGRTSVINAMGWYRQAPGKETELVATITWSAASTYYADSVKGRFTISRDNAKNTVYLQMNSLKPEDTAVYYCATDSAQYGYDYWGQGTQVTVSS	low polyreactivity
QVQLVESGGGLVQAGGSLRLSCPASGSIFDRYAMGWYRQAPGKERELVAAISWSDSRTYYADSVKGRFTISRDNAKNTVYFQMNSLKPEDTAVYYCAADGSTWGDYRTYGYWGQGTQVTVSS	low polyreactivity
QVQLVESGGGLVQAGGSLRLSCPASGSIFQGNAMGWYRQAPGKERELVAAISWSGDSTYYADSVKGRFTISRDNAKNTVYLQMNSLKPEDTAVYYCNAEWTRDFYEYDYWGQGTQVTVSS	low polyreactivity
QVQLVESGGGLVQAGGSLRLSCPASGSIFYENAMGWYRQAPGKARELVAAISRSGGSTYYADSVKGRFTISRDNAKNTVYLQMNSLKPEDTAVYYCNTEGGVIRRYWYDYWGQGTQVTVSS	low polyreactivity
QVQLVESGGGLVQAGGSLRLSCPASGSTFWYYDMGWSRQAPGKERELVAAISGSGGRTYYADSVKGRFTISRDNAKNTVYLQMNSLKPEDTAVYYCAADYYWSADFKYNDWGQGTQVTVAS	low polyreactivity
QVQLVESGGGLVQAGGSLRLSCPASGYTFYVYAMGWYRQAPGKERELVAAIGGGSTNYADSVKGRFTISRDNAKNTVYLQMNSLKPEDTAVYYCAARRYYKFYYWGQGTQVTVSS	high polyreactivity
QVQLVESGGGLVQAGGSLRLSCPDSGFIFYLYDMGWYRQAPGKEREVVAAITDRGGSTYYADSVKGRFTITRDNAKITVYLQLKSLKPEDTAVYSCAAASSAIDSSVTMDYWGQGTQVTVSS	low polyreactivity
QVQLVESGGGLVQAGGSLRLSCSASGGTFITNAMGWYRQAPGKERELVAAITSGGRTTYADSVKGRFTISRDNAKNTVYLQMNSLKPEDTAVYYCAADHVYSYTYNFDYWGQGTQVTVSS	low polyreactivity
QVQLVESGGGLVQAGGSLRLSCSASGITFEGYAMGGYRQAPGKERELVAAIRSSGTSRYYADSVKGRFTISRDNAKNTVYLQMNSQKPEDTAVYYCNRARSSSRYDYWGQGTQVTVSS	low polyreactivity
QVQLVESGGGLVQAGGSLRLSCSASGITFTGYGMGWYRQAPGKERELVAAIRLRTGSTYYADSVKGRFTISRDNAKNTVYLQMNSLKPEDTAVYYCAKKWSSKYWGQGTQVTVSS	high polyreactivity
QVQLVESGGGLVQAGGSLRLSCSASGLIFWAYAMGWYRQAPGKERELVAAINWRGGSTYYADSVKGRFTISRDNAKNTVYLQMNSLKPEDTAVYYCNTDFQLGEGGSYGYDYWGQGTQVTVSS	low polyreactivity
QVQLVESGGGLVQAGGSLRLSCSASGLTFGNNAMGWYRQAPGKETELVAAISSDGTTYYADSVKGRFTISRDHAKNTVYLQMNSLKPEDSAVYYCAALYGPGREYDYWGQGTQVTVSS	low polyreactivity
QVQLVESGGGLVQAGGSLRLSCSASGRIFDTYAMGWYRQAPGKERELVAAIRRTGGSTYYADSVKGRFTISRDNAKNTVYLQMNSLKPEDTAVYYCAAEYTVSYLRMDYWGQGTQVTVSS	low polyreactivity

Sequence	polyreactivity (PSR sort gate)
QVQLVESGGGLVQAGGSLRLSCSASGRILVLNAMGWYRQAPGTERELVADITSGGSTYYADSVKGRFTISRDNAKNTVYLQMNSLKPEDTAVYYCAADWNTYPDYQQSYFVSYEYNYWGQGTQVTVSS	low polyreactivity
QVQLVESGGGLVQAGGSLRLSCSASGRISVFNVMGWYRQAPGKERELVAAITSGGSTIYADSVKGRFTISRDNAKNTVYLQMNSLKPEDTAVYYCAALYQFHGKIWDGDYWGQGTQVTVSS	low polyreactivity
QVQLVESGGGLVQAGGSLRLSCSASGRTFSWYAMGWYRKAPGKERELVAAISYSGGSTYYADSVKGRFTISRDNAKNTVYLQMNSLKPEDTAVYYCARTRRHSQNFDYWGQGTQVIVSS	high polyreactivity
QVQLVESGGGLVQAGGSLRLSCSASGRTLGRNAMGWYRPAPGKERELVAAISWGGGDTSYADSVKGRFTISRDNAKNTVYLQMNSLKPEDTAVYYCNRYYTPYRRWGYDYWGQGTQVTVSS	high polyreactivity
QVQLVESGGGLVQAGGSLRLSCSASGRTSQWNAMGWYRQAPGKERELVAAISWRTGGTYYADSVKGRFTISRDKAKNTVYLQMNSLQPEDTAVYYCAAGYIGGRPQYWRIGGYWGQGTQVTVSS	high polyreactivity
QVQLVESGGGLVQAGGSLRLSCSASGSIFGGYAMGWYRQAPGKEREFVAAISRRGASTYYADSVKGRYTISRDNAKNTVYLQMNSLKPEDTAVYYCNARAYGRIDGLSATYGYWGQGTQVTVSS	high polyreactivity
QVQLVESGGGLVQAGGSLRLSCSASGSIFKIYAMGWYRQAPGKERELVASITGSGGSTYYADSVKGRFTISRDNAKNTVYLQMNSLKPEDTAVYYCAAAVLGSSKSEVDPDRPEYYYWGQGTQVTVSS	low polyreactivity
QVQLVESGGGLVQAGGSLRLSCSASGSIFRVYGMGWYRQAPGKERELVAAITWSGGSTYYADSVKGRFTISRDNAQNTVYLQMNSLKPEDTAVYYCAARARPRYYRQPYDYLGQGTQVTVSS	high polyreactivity
QVQLVESGGGLVQAGGSLRLSCSASGSIFSNAMGWYRQAPGKERELVAAITGRGGRTYYADSVKGRFTITRDNAKNSVYLQMNSLKPEDTAVYYCARDSPWSSRYRYRAFDYWGQGTQVTVSS	high polyreactivity
QVQLVESGGGLVQAGGSLRLSCSASGSNFYTNAMGWYRQAPGKERELVAVITASGGSTYYADSVKGRFTISRDYAKNTVYLLMNSLKPEDTAVYYCASDPVFNYDYWGQGTQVTVSS	low polyreactivity
QVQLVESGGGLVQAGGSLRLSCSASGSTFAYYTMGWYRQAPGKERELVAAISRSGGSTYYSDSVKGRFTISRDNAKNTVYLQMNSLKPEDTAVYYCAADKHYAVIPYEYWGQVTQVTVSS	high polyreactivity
QVQLVESGGGLVQAGGSLRLSCSASGSTFDTYAMGWYRKAPGKERELVAAISRSGGSTYYADSVKWRFTISRDNAKNTVYLQMNSLKPEDTAVYFCNALSGDLAGDYWGQGTQVTVSS	high polyreactivity
QVQLVESGGGLVQAGGSLRLSCSASGSTFERYAMGWYRQAPGKERELVAAISAIGDSTYYADSVKGRFTISRDNANNTVYLQMNSLKPEDTAVYYCAAKTSDYGYYYWGQGTQVTVSS	high polyreactivity
QVQLVESGGGLVQAGGSLRLSCSASGSTFKYNAKGWYIQETGKEWELVAYITRGGHTNYAVSVKGRFTISRDNAKNTVYLQMNRLKPEDTAVYYCAAVRPSVGFRGAWYPQYDYWGQGTQVTVSS	low polyreactivity
QVQLVESGGGLVQAGGSLRLSCSASGSTFSDNVMGWYRQAPGKERELVAGITRSGGRTYYADSVKGRFTISRDNAKNTVYLQMNSLKPEDTAVYYCAAASSGEYGYWGQGTQVTVSS	low polyreactivity
QVQLVESGGGLVQAGGSLRLSCSASGSTFVVYAMGWSRQAPGKERELVAAISESGSSTYYADSVKGRFTISRDNAKNTVYLQMNSLKPEDTAVYYCNALYYDWHPEYQVIFSDFYYWGQGTQVTVSS	low polyreactivity
QVQLVESGGGLVQAGGSLRLSCSASGSTFWYYAMGWYRKAPGKERELVAAITRGASTNYADSVKGRFTISRDNAKNTVYLQMISLIPEDTAVYYCAAGPARWKGYYWGQGTQVTVSS	high polyreactivity
QVQLVESGGGLVQAGGSLRLSCSASGSTFYLYAMGWYRQAPGKEREFVADISLSGDSTYYADSVKGRFTISRDNAKNTVYLQMNSLKPEDTAVYYCAADVFYPGPWSYEYWGQGTQVTVSS	low polyreactivity
QVQLVESGGGLVQAGGSLRLSCSASGYIFGRNSMGWYRTAHGKERELVAVISSRGSRTYYADSVKGRFTISRDNAKNTVYLQMNSLKPEDTAVYYCNAVLWWDWVYDFYYWGQGNQVTVSS	high polyreactivity
QVQLVESGGGLVQAGGSLRLSCSASGYIYQYNSMGWYRQAPGKERELVAANSRGGRTNYADSVKGRFTISRDNAKNTVYLQMNSLKPEDTEVYYCAAKRPWGYYPWSTQTGDYWGQGTQVTVSS	high polyreactivity

Reference: the nanobody polyreactivity screen of Harvey et al. (2022)
